# Measurements as given in IntAct's records for PubMed 31481669.
# B1: EKC/KEOPS complex subunit LAGE3 (Homo sapiens), Q14657 (parent)
# chain: MRDADADAGGGADGGDGRGGHSCRGGVDTAAAPAGGAPPAHAPGPGRDAASAARGSRMRPHIFTLSVPFPTPLEAEIAHGSLAPDAEPHQRVVGKDLTVSGRILVVRWKAEDCRLLRISVINFLDQLSLVVRTMQRFGPPVSR
# partner: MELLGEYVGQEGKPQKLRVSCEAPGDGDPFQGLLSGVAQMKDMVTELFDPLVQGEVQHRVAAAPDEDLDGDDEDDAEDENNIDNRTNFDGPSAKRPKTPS
# Variants of: B1
# Conditions: with gon7_human GON7, Q9BXV9
row,effect of a mutation on the interaction,Variant
1,with no effect,MRDADADAGGGADGGDGRGGHSCRGGVDTAAAPAGGAPPAHAPGPGRDAASAARGSRMRPHIFTLSVPFPTPLEAEIAHGSLAPDAEPHQRVVGKDLTVSGRILVVRWKAEDCRLLRISVINFLDQLSLVVRTMQRSGPPVSR [F137S]
2,with no effect,MRDADADAGGGADGGDGRGGHSCRGGVDTAAAPAGGAPPAHAPGPGRDAASAARGSRMRPHIFTLSVPFPTPLEAEIAHGSLAPDAEPHQRVVGKDLTVSGRILVFRWKAEDCRLLRISVINFLDQLSLVVRTMQRFGPPVSR [V106F]
